Test results: US20170002079A1

Molecular target: human ST2 on primary human cells (human) (UniProt Q01638)
Test: cell-based or functional assay

Sequence of human ST2 on primary human cells (human) (Q01638 19-556 A78X, form in doubt): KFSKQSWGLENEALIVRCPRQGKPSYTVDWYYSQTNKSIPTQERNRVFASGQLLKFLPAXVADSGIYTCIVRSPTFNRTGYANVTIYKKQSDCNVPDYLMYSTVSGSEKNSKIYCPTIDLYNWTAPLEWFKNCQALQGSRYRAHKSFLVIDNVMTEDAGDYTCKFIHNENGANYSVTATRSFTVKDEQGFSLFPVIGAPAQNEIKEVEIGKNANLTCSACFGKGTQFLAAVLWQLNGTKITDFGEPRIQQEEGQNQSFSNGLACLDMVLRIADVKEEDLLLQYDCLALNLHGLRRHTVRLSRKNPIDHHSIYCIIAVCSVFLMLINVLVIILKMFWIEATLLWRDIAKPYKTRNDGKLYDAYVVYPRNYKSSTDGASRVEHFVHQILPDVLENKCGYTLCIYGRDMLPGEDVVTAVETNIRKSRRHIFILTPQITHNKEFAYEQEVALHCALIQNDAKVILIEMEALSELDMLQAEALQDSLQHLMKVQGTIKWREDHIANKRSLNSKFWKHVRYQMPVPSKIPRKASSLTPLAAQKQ

## 97203 (antibody)
  IC50 (ug/ml), inhibition of IL-33-dependent IFN-γ release from human NK cells (IL-33 10 ng/mL and IL-12): 0.385 µg/mL
